Values of other authors as cited in PMC10188253 (Molecular pharmaceutics, 2022).
Read-outs that look alike come from different tables or passages of the source.

Test system: B16/F10 melanoma
Settings: ref [25]

## ^64Cu-CB-TE1A1P-PEG4-LLP2A
2 h post-injection
  B16/F10 melanoma uptake: 15.1 ± 1.0 % ID/g
  VLA-4-specific uptake in normal lung, bone and spleen: 4.6–18.1 % ID/g
4 h post-injection
  B16/F10 melanoma uptake: 16.9 ± 2.2 % ID/g
